No end group written: not given here. *: point of attachment. 4‑(fluorosulfonyl)phenylacetyl = O=C(Cc1ccc(S(=O)(=O)F)cc1)*; Benzoyl(3-SO2F) = O=C(c1cccc(S(=O)(=O)F)c1)*; Benzoyl(4-SO2F) = O=C(c1ccc(S(=O)(=O)F)cc1)*
T1: CsgG (preformed nonameric CsgG pore complexes of Example 2) (Escherichia coli, UniProt P0AEA2 16-277)
T1 construct: Tyr196 fits that numbering; also called CsgG nonameric channel
T1 sequence: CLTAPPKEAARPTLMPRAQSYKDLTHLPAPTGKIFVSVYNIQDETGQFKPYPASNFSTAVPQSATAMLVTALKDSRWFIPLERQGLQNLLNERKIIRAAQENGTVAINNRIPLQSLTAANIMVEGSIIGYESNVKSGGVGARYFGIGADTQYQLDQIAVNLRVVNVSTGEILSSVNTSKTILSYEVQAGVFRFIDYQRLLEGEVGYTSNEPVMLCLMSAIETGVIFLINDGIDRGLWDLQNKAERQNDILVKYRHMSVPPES

T2: CsgG-F56Q pore (ONLP20134) (Escherichia coli, UniProt P0AEA2 16-277)
T2 construct: Oligomeric pore purified from E. coli; also called CsgG-WT-F56Q; CsgG-only pore control
T2 sequence: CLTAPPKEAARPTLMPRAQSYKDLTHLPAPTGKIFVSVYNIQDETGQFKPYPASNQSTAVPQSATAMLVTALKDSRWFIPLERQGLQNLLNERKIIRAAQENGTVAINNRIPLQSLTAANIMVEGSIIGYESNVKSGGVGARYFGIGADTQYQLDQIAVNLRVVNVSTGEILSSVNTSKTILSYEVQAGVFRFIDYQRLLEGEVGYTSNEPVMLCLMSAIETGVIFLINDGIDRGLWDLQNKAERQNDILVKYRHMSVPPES


Assays:
[1] = target: T1, CsgG (preformed nonameric CsgG pore …); assay: SDS-PAGE time course of the reaction with CsgG
[2] = target: T1, CsgG (preformed nonameric CsgG pore …); assay: insertion of complexes into bilayers; told of the covalent SuTide complexes as a group
[3] = target: T2, CsgG-F56Q pore (ONLP20134); assay: single-channel current traces, MinION flow cell, -180 mV

Binder | first order rate constant k1 of covalent reaction [1] | halftime (t1/2) of covalent complex formation [1] | fold increase in the proportion of bilayer embedded stable complexes over the non-covalent complex [2] | binding result [3]
GTMTFQFRNPNFGGNPNNGAFLLNSAQAQK(Benzoyl(3-SO2F))-NH2 (N-terminus assumed; SMILES CSCC[C@H](NC(=O)[C@@H](NC(=O)CN)[C@@H](C)O)C(=O)N[C@H](C(=O)N[C@@H](Cc1ccccc1)C(=O)N[C@@H](CCC(N)=O)C(=O)N[C@@H](Cc1ccccc1)C(=O)N[C@@H](CCCNC(=N)N)C(=O)N[C@@H](CC(N)=O)C(=O)N1CCC[C@H]1C(=O)N[C@@H](CC(N)=O)C(=O)N[C@@H](Cc1ccccc1)C(=O)NCC(=O)NCC(=O)N[C@@H](CC(N)=O)C(=O)N1CCC[C@H]1C(=O)N[C@@H](CC(N)=O)C(=O)N[C@@H](CC(N)=O)C(=O)NCC(=O)N[C@@H](C)C(=O)N[C@@H](Cc1ccccc1)C(=O)N[C@@H](CC(C)C)C(=O)N[C@@H](CC(C)C)C(=O)N[C@@H](CC(N)=O)C(=O)N[C@@H](CO)C(=O)N[C@@H](C)C(=O)N[C@@H](CCC(N)=O)C(=O)N[C@@H](C)C(=O)N[C@@H](CCC(N)=O)C(=O)N[C@@H](CCCCNC(=O)c1cccc(S(=O)(=O)F)c1)C(N)=O)[C@@H](C)O, Synthetic peptide: WT CsgF(1-29) with a modified Lys at position 30; also called 3-SO2F-CsgF; CsgF-WT-K30-META-SO2F-del(S31-F119)) [CsgF-K30-META-SO2F-del(S31-F119)] | ~1 h⁻¹ | 0.66 h | 2 fold | –
GTMTFQFRNPNFGGNPNNGAFLLNSAQAQN (Chemically synthesised peptide; In complex ONLP20783 with CsgG-F56Q; also called CsgF-WT-del(S31-F119); del(S31-F119) CsgF peptide) [CsgF-del(S31-F119)] | – | – | – | binds
GTMTFQFRNPNFGGNPNNGAFLLNSAQAQK(Benzoyl(4-SO2F))-NH2 (N-terminus assumed; SMILES CSCC[C@H](NC(=O)[C@@H](NC(=O)CN)[C@@H](C)O)C(=O)N[C@H](C(=O)N[C@@H](Cc1ccccc1)C(=O)N[C@@H](CCC(N)=O)C(=O)N[C@@H](Cc1ccccc1)C(=O)N[C@@H](CCCNC(=N)N)C(=O)N[C@@H](CC(N)=O)C(=O)N1CCC[C@H]1C(=O)N[C@@H](CC(N)=O)C(=O)N[C@@H](Cc1ccccc1)C(=O)NCC(=O)NCC(=O)N[C@@H](CC(N)=O)C(=O)N1CCC[C@H]1C(=O)N[C@@H](CC(N)=O)C(=O)N[C@@H](CC(N)=O)C(=O)NCC(=O)N[C@@H](C)C(=O)N[C@@H](Cc1ccccc1)C(=O)N[C@@H](CC(C)C)C(=O)N[C@@H](CC(C)C)C(=O)N[C@@H](CC(N)=O)C(=O)N[C@@H](CO)C(=O)N[C@@H](C)C(=O)N[C@@H](CCC(N)=O)C(=O)N[C@@H](C)C(=O)N[C@@H](CCC(N)=O)C(=O)N[C@@H](CCCCNC(=O)c1ccc(S(=O)(=O)F)cc1)C(N)=O)[C@@H](C)O, Synthetic peptide: WT CsgF(1-29) with a modified Lys at position 30; also called 4-SO2F-CsgF; CsgF-WT-K30-PARA-SO2F-del(S31-F119)) [CsgF-K30-PARA-SO2F-del(S31-F119)] | ~0.46 h⁻¹ | 1.5 h | 2 fold | –
GTMTFQFRNPNFGGNPNNGAFLLNSAQAQK(4‑(fluorosulfonyl)phenylacetyl)-NH2 (N-terminus assumed; SMILES CSCC[C@H](NC(=O)[C@@H](NC(=O)CN)[C@@H](C)O)C(=O)N[C@H](C(=O)N[C@@H](Cc1ccccc1)C(=O)N[C@@H](CCC(N)=O)C(=O)N[C@@H](Cc1ccccc1)C(=O)N[C@@H](CCCNC(=N)N)C(=O)N[C@@H](CC(N)=O)C(=O)N1CCC[C@H]1C(=O)N[C@@H](CC(N)=O)C(=O)N[C@@H](Cc1ccccc1)C(=O)NCC(=O)NCC(=O)N[C@@H](CC(N)=O)C(=O)N1CCC[C@H]1C(=O)N[C@@H](CC(N)=O)C(=O)N[C@@H](CC(N)=O)C(=O)NCC(=O)N[C@@H](C)C(=O)N[C@@H](Cc1ccccc1)C(=O)N[C@@H](CC(C)C)C(=O)N[C@@H](CC(C)C)C(=O)N[C@@H](CC(N)=O)C(=O)N[C@@H](CO)C(=O)N[C@@H](C)C(=O)N[C@@H](CCC(N)=O)C(=O)N[C@@H](C)C(=O)N[C@@H](CCC(N)=O)C(=O)N[C@@H](CCCCNC(=O)Cc1ccc(S(=O)(=O)F)cc1)C(N)=O)[C@@H](C)O, Synthetic peptide: WT CsgF(1-29) with a modified Lys at position 30; also called 4-CH2SO2F-CsgF; CsgF-WT-K30-CH2PH-p-SO2F-del(S31-F119)) [CsgF-K30-CH2-PH-P-SO2F-del(S31-F119)] | ~0.17 h⁻¹ | 4 h | 2 fold | –
